This is an account of results in patent US20220162304A1 (TUOJIE BIOTECH SHANGHAI, published 2022).

Test [1] deals with T1, fusion protein of human CD79B extracellular domain (ECD) and His tag (human CD79B ECD-His) (human, UniProt P40259 29-159).
T1 construct: also called human CD79B-His; Human CD79B-His protein
T1 sequence: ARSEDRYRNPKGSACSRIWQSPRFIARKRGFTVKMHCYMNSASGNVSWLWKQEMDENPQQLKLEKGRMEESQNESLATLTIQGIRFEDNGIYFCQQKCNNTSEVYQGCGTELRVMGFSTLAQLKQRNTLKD
The test is described as follows: SPR (Biacore 8K; by Example 2 human CD79B-His immobilised on CM5 chip, antibody flowed over). Background: In SPR one partner is held on a chip, and binding of the other changes the refractive index at the surface.

Test [2] deals with T2, human CD79B protein on the surface of DoHH2 cells (human, UniProt P40259 29-229).
T2 construct: whole, on cells; endogenous CD79B on a B-cell lymphoma line
T2 sequence (looked up): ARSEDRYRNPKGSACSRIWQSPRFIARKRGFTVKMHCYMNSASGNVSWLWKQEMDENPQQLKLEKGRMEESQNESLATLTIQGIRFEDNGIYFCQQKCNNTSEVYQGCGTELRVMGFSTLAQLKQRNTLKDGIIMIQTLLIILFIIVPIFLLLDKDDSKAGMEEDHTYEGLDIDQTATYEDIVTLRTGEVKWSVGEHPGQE
The test is described as follows: FACS, hybridoma culture supernatant on DoHH2 cells. How it is done:
4) FACS screening. DoHH2 cell suspensions were centrifuged and the cells were resuspended in PBS containing 0.1% BSA and counted. The cell supernatant to be tested was added. After 60 min of incubation at room temperature, the cells were washed for three times and then anti-mouse IgG Fc-FITC secondary antibody was added. After 30 min of incubation at room temperature in the dark, the cells were washed for three times and gently resuspended in PBS containing 0.1% BSA for detection on the instrument.
(§1) 5) Identification of positive hybridoma clones. After fusion and subclone screening of mouse spleen cells, we obtained a number of specific antibodies against human CD79B antigen. Among them, 17 hybridomas with the best ELISA and FACS binding ability were used for antibody production and purification. The FACS detection results of the culture supernatant of anti-human CD79B hybridoma positive clone cells are shown in Table 2. mIgG was used as a negative control in both ELISA and FACS tests.
A general note: In flow cytometry, cells or beads pass a laser one at a time.

The target of test [3] is T3, human CD79B antigen (coating antigen of the ELISA, construct not stated) (human, UniProt P40259 29-159).
T3 sequence (looked up): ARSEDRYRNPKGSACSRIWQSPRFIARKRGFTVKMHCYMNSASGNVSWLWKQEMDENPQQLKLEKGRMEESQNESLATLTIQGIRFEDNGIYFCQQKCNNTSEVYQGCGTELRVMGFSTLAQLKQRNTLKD
As to the kind of experiment: ELISA, hybridoma culture supernatant on plate coated with antigen 1 µg/mL. On the procedure:
3) ELISA screening. Before the start of the experiment, a 96-well plate was labeled accordingly and coated with an antigen at a concentration of 1 μg/mL, 50 μl per well overnight in a refrigerator at 4° C. The next day, the antigen plate coated the day before was taken out and washed with a plate washer (washing solution: 1×PBST). After washing, the plate was blocked with 1% BSA blocking solution prepared in 1×PBST at 37° C. for 1 h. After washing the plate with 1×PBST washing solution for 3 times, 50 μl of cell supernatant to be tested were added and incubated in a 37° C. incubator for 1 h. After washing the plate with 1×PBST washing solution for 3 times, 100 μl 1:5000 diluted goat-anti-mouse secondary antibody was added and incubated in a 37° C. incubator for 0.5 h. After washing the plate, TMB chromogenic solution A and B were mixed at a 1:1 ratio and then color development was carried out. The development reaction was terminated with 1 N hydrochloric acid after 15 min. The […] at 450 nm were detected on a Spectra Max M5 multi-function plate reader.
as §1

For test [4], the target named is T3, human CD79B antigen (coating antigen of …). The test is described as follows: ELISA, plate coated with antigen at 1 ug/mL, serial antibody dilutions, OD450. How it is done:
2) ELISA detection of anti-human CD79B murine monoclonal antibodies. Before the start of the experiment, a 96-well plate was labeled accordingly and coated with an antigen at a concentration of 1 μg/mL, 50 μl per well overnight in a refrigerator at 4° C. The next day, the antigen plate coated the day before was taken out and washed with a plate washer (washing solution: 1×PBST) for once. After washing, the plate was blocked with 1% BSA blocking solution prepared in 1×PBST at 37° C. for 1 h. After washing the plate with 1×PBST washing solution for 3 times, 50 μl of antibody, diluted to 100 nM (by 1:10), were added and incubated in a 37° C. incubator for 1 h. After washing the plate with ×PBST washing solution for 3 times, 100 μl 1:5000 diluted goat-anti-mouse secondary antibody was added and incubated in a 37° C. incubator for 0.5 h. After washing the plate, TMB chromogenic solution A and B were mixed at a 1:1 ratio and then color development was carried out. The development reaction was terminated with 1 N hydrochloric acid after 15 min. The […] at 450 nm were detected on a Spectra Max M5 multi-function plate reader. Among them, three anti-human CD79B murine monoclonal antibodies had the strongest ELISA binding ability, including mAb015, mAb016 and mAb017 (see FIG. 7 for specific data). Among them, hIgG1 was the negative control antibody and SN8 was the positive control antibody. SN8 is the antibody used in the antibody-conjugated drug polatuzumab vedotin developed by Roche Pharmaceuticals (for the sequence, refer to the source of the sequence: US20170362318A). At present, polatuzumab vedotin has been approved by the FDA for marketing. It can be seen from the results that in the ELISA experiment, the binding ability of the three anti-human CD79B murine monoclonal antibodies mAb015, mAb016 and mAb017 selected preferably by the present disclosure was similar to that of SN8.
(In general: ELISA stands for enzyme-linked immunosorbent assay.)

In test [5] the target is T2, human CD79B protein on the surface of …. The test is described as follows: FACS on DOHH2 cells, serial antibody dilutions, anti-mouse IgG Fc-FITC secondary antibody, MFI. On the procedure:
3) FACS detection of anti-human CD79B murine monoclonal antibodies. After centrifugation of the DOHH2 cell suspension, the cells were resuspended in PBS containing 0.1% BSA and counted. 100 μl of antibody diluted to 100 nM (by 1:10) was added and incubated for 1 h at room temperature. After washing the cells for three times, anti-mouse IgG Fc-FITC secondary antibody was added. After 30 min of incubation at room temperature in the dark, the cells were washed for three times and gently resuspended in PBS containing 0.1% BSA for testing on an instrument. Among them, three anti-human CD79B murine monoclonal antibodies had the strongest FACS binding ability, including mAb015, mAb016 and mAb017 (see FIG. 8 for specific data). Among them, hIgG1 was the negative control antibody and SN8 was the positive control antibody. It can be known from the results that in the FACS experiment, the binding ability of the three anti-human CD79B murine monoclonal antibodies mAb015, mAb016 and mAb017 selected preferably by the present disclosure was better than that of SN8.

Test [6] has the same target. The test is described as follows: FACS on DOHH2 cells, serial antibody dilutions, FITC secondary antibody, MFI.

B1: humanized antibody hAb015 (antibody, human IgG1, kappa, V domains shown)
VH: EVQLVQSGAEVKKPGSSVKVSCKASGSSFSSYGINWVKQAPGQGLEWIGEIFPRSGNTYYNEKFEGRATLTADKSTSTAYMELRSLRSEDTAVYYCAKGDLGDFDYWGQGTTVTVSS
VL: DFVMTQTPLSLPVTPGEPASISCRSSQSIVHSDGNTYFEWYLQKPGQSPKLLIYKVSNRFSGVPDRFSGSGSGTDFTLKISRVEAEDVGVYYCFQGSHVPWTFGGGTKVEIKR
As for B1, the Kd (as a rule, the concentration at which binding is half-saturated) in test [1] was 0.43 nM.

B2: humanized antibody hAb017 (antibody, human IgG1, kappa, V domains shown)
VH: EVQLVQSGAEVKKPGASVKVSCKASGYTFTTYGINWVKQAPGQGLEWIGEIYPRSGNIYYNEKFKGKATLTADKSTSTAYMELRSLRSDDTAVYYCARGSDYDGDFAYWGQGTLVTVSS
VL: DVVMTQTPLSLPVTPGEPASISCRSSQSIVHHDGNTYLEWYLQKPGQSPQLLIYKVSNRFSGVPDRFSGSGSGTDFTLKISRVEAEDVGVYYCFQGSHVPWTFGGGTKVEIKR
Molecule B2 yielded a Kd in test [1] of 3.77 nM. Compared with the last molecule, the Kd is about 8.8-fold higher.

B3: murine hybridoma monoclonal antibody mAb015 (antibody, V domains shown)
VH: QVQLQQSGAELARPGASVKLSCKASGSSFTSYGINWVKQRTGQGLEWIGEIFPRSGNTYYNEKFEGKATLTADKSSSTAYMELRSLTSEDSAVYFCAKGDLGDFDYWGQGTTLTVSS
VL: DFLMTQTPLSLPVRLGDQASISCRSSQSIVHSDGNTYFEWYLQKPGQSPKLLIYKVSNRFSGVPDRFSGSGSGTDFTLKISRVEAEDLGVYYCFQGSHVPWTFGGGTKLEIK
notes: murine monoclonal antibody from hybridoma; also called 83B2G2
In turn, B3 displayed a Mean fluorescence values in test [2] of 10000 mean fluorescence. The molecule further gave an OD450 in test [3] of 3.41 OD450. The results for the “EC50 (read off the curve)” value in test [4] and in test [5] were about 0.1 nM and about 0.02 µg/mL, respectively.

B4: murine hybridoma monoclonal antibody mAb017 (antibody, V domains shown)
VH: QVQLQQSGAELARPGASVKLSCKASGYTFTTYGINWVKQRTGQGLEWIGEIYPRSGNIYYNEKFKGKATLTADKSSSTAYMELRSLTSEDSAVYFCARGSDYDGDFAYWGQGTLVTVSA
VL: DVLMTQTPLSLPVSLGDQASISCRSSQSIVHHDGNTYLEWYLQKPGQSPKLLIYKVSNRFSGVPDRFSGSGSGTDFTLKISRVEAEDLGVYYCFQGSHVPWTFGGGTQLEIK
notes: murine monoclonal antibody from hybridoma; also called 86F11F6
As to B4, the Mean fluorescence values in test [2] came out at 8130 mean fluorescence. In test [3], the OD450 came out at 3.8 OD450. The 50% effective concentration (EC50 (read off the curve)) (in general, the concentration needed to bring the measured effect to its halfway point) in test [4] was about 0.1 nM; in test [5], about 0.02 µg/mL.

B5: murine hybridoma monoclonal antibody mAb016 (antibody, V domains shown)
VH: QVQLQQSGAELARPGASVKLSCKASGYIFTNYGIIWVKQRTGQGLEWIGDIFPGSGNTYYNENFKGKATLTADKSSSTAYMELRSLTSEDSAVYFCSRGELGDFDYWGQGTTLTVSS
VL: VVLMTQTPLSLPVSLGDQASISCRSSQNIVHSDGTTYLEWYLQKPGQSPKLLIYKVSNRFSGVPDRFSGSGSGTDFTLKISRVEAEDLGIYYCFQGSHVPWTFGGGTKLEIK
notes: murine monoclonal antibody from hybridoma; also called 83C2D4
In test [2], B5 returned a Mean fluorescence values of 9990 mean fluorescence. In test [3], this molecule came in with an OD450 of 3.46 OD450. Moreover, the “EC50 (read off the curve)” value in test [4] was about 0.1 nM; in test [5], about 0.02 µg/mL.

B6: SN8 (antibody, V domains shown)
VH: EVQLVESGGGLVQPGGSLRLSCAASGYTFSSYWIEWVRQAPGKGLEWIGEILPGGGDTNYNEIFKGRATFSADTSKNTAYLQMNSLRAEDTAVYYCTRRVPIRLDYWGQGTLVTVSS
VL: DIQLTQSPSSLSASVGDRVTITCKASQSVDYEGDSFLNWYQQKPGKAPKLLIYAASNLESGVPSRFSGSGSGTDFTLTISSLQPEDFATYYCQQSNEDPLTFGQGTKVEIKR
Turning to B6, in test [6], the “EC50 (read off the curve)” value was about 0.09 µg/mL.
